Target: VSV-G-pseudo-typed lentiviral vector particles (vesicular stomatitis virus) (UniProt P03522)
Sequence of UniProt P03522 (P03522 17-511): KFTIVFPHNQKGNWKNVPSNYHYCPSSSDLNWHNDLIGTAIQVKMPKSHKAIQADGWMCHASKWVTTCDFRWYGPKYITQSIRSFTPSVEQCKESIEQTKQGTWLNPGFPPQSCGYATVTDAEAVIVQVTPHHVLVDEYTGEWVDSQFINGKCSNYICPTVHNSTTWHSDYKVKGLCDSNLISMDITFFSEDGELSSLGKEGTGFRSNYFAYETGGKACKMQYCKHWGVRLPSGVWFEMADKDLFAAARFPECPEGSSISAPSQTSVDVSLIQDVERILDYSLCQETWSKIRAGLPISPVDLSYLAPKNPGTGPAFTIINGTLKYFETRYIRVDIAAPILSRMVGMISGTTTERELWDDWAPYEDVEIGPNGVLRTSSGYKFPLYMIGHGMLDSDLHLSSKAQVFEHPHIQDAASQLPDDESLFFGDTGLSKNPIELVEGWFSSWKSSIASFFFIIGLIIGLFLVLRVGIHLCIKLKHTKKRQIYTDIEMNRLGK

Row | Sequence | capacity [TU/mL] | LVV adsorbed [TU/mL]
1 | FEKISAAE (peptide) | 5e+08 | –
2 | GKEAAFAA (peptide) | – | > 1e+09

From patent publication US20260022352A1, “COMPOSITIONS AND METHODS FOR PURIFYING […]” (North Carolina State University, priority 2023, published 2026)
